# Reference: article PMC10202959
# Tests used:
# Experiment in all cases: ELISA; plates coated with 100 nM ECM protein in PBS (1 h, 37 °C), blocked with 1% BSA in PBS-T; PDGF-BB or IL-1Ra variants at increasing concentrations in PBS-T with 0.1% BSA, 1 h at room temperature; detected with biotinylated antibodies; one site specific binding model; n = 3
# [1] = molecular target: human tenascin C (human) (UniProt P24821)
# [2] = molecular target: human vitronectin (human) (UniProt P04004)
# [3] = molecular target: human plasma fibronectin (human)
# Chain of human vitronectin (human) (P04004 20-478): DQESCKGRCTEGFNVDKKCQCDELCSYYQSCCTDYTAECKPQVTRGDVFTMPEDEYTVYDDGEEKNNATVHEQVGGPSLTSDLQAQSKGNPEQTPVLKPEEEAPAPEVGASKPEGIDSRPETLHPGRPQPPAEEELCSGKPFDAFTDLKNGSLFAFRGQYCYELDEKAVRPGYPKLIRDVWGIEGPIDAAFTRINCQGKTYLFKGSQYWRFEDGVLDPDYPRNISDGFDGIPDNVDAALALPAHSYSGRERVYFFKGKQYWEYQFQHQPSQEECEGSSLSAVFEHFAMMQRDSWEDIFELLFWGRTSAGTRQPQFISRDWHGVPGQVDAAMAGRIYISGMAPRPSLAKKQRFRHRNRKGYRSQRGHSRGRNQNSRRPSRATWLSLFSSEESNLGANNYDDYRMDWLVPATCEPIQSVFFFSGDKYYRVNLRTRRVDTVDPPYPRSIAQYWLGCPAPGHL
# Chain of human tenascin C (human) (P24821 23-2201): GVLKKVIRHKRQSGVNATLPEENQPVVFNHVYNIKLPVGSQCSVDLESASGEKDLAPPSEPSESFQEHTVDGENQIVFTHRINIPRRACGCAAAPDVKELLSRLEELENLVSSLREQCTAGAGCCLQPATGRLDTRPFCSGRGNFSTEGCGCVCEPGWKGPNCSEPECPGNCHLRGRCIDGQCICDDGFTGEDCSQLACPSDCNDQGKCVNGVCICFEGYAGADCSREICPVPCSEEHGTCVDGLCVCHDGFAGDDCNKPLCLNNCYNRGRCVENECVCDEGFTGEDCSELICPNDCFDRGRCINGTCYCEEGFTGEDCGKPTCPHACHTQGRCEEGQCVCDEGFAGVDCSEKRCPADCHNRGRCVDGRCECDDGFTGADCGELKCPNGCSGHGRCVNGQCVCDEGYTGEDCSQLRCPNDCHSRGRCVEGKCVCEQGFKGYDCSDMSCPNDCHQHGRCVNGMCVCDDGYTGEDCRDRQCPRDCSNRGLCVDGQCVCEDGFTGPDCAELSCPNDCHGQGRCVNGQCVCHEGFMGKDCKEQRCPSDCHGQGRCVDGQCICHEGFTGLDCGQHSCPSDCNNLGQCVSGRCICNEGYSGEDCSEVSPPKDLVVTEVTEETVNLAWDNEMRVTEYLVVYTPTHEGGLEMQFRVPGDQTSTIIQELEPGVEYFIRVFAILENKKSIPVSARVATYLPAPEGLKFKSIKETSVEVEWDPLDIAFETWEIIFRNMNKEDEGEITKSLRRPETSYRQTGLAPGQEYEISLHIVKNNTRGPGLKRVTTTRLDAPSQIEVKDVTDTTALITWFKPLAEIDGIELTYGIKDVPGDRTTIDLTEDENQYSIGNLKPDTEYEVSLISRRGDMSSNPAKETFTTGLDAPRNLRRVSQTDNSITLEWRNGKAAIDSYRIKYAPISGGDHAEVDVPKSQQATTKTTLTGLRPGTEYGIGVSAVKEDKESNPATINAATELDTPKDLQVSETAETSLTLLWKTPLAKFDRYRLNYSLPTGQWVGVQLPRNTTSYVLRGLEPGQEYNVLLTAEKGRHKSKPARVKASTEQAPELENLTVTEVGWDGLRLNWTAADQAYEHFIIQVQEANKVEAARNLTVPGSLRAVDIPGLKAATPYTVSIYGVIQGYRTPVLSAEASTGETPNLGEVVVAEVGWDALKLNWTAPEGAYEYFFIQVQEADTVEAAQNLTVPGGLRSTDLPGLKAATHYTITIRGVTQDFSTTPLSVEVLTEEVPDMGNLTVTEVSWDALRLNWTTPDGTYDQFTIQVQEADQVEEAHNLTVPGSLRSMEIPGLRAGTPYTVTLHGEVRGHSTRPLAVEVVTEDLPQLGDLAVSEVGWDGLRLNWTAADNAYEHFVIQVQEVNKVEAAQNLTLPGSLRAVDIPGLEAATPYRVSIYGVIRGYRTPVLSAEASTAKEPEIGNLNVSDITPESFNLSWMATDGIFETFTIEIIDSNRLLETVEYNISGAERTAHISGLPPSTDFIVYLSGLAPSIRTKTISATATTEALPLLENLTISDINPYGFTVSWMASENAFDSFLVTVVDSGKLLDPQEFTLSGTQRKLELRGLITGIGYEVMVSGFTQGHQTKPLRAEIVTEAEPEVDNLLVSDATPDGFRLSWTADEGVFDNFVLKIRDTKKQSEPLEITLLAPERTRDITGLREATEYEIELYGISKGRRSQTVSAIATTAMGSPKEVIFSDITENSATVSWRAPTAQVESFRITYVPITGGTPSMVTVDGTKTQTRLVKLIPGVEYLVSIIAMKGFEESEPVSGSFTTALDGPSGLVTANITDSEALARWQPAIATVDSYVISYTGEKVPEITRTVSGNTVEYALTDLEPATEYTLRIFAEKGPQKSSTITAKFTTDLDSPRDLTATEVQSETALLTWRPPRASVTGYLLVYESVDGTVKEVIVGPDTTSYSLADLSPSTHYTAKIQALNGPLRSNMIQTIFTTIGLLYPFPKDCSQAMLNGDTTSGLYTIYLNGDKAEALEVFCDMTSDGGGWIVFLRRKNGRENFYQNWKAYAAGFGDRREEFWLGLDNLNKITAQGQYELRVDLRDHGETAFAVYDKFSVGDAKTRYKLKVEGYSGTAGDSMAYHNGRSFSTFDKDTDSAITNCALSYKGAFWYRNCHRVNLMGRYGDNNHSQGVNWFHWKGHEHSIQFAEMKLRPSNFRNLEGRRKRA
Kd [1] [nM],Kd [2] [nM],Kd [3] [nM],Substance
18.6,1.9,16.5,AREG26-38/IL-1Ra
19.3,1.3,5.9,AREG26-38/PDGF-BB
